Assay results from doi:10.1101/2024.10.21.619395.

Target: G protein-coupled bile acid receptor 1 (GPBAR1), full length, with N-terminal FLAG and BRIL (human) (UniProt Q8TDU6)
Test: mass photometry

Sequence of UniProt Q8TDU6 (Q8TDU6 whole entry): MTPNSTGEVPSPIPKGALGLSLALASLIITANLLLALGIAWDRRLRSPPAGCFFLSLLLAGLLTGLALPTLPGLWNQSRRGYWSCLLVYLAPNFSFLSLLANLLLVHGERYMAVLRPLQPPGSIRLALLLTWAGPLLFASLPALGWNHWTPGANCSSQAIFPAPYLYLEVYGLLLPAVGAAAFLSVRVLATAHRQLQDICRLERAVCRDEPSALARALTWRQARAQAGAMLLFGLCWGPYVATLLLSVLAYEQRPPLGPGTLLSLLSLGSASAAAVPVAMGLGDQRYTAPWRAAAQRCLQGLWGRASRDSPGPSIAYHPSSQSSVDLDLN

## Heterotrimeric Gs (Gαs, Gβ1, Gγ2) (from UniProt P63096 1-18; P63092 16-394; P62873 2-340; P59768 1-71) (complex)
  stoichiometry N: 1
